The results in this text go back to paper PMC8529501 (iScience, 2021).

In the first assay the target is T1, SIRT2 (Homo sapiens, UniProt Q8IXJ6).
T1 construct: GST-tagged SIRT2 expressed in E. coli BL21
T1 sequence (Q8IXJ6 2-389): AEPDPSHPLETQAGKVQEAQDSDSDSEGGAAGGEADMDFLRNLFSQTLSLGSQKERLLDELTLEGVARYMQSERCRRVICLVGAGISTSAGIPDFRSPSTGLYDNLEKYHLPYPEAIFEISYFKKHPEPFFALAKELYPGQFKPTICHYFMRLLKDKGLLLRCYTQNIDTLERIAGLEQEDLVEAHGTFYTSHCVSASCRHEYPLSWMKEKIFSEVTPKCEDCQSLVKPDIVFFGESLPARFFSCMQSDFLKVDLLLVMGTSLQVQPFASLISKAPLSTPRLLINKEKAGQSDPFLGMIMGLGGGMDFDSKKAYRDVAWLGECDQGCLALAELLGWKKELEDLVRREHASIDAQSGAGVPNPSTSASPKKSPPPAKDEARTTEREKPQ
Put plainly: ITC; also label-free MST (Kd […]) and native PAGE. It counts as binding.
Conditions: not given
In general terms: Isothermal titration calorimetry measures the heat released or taken up as one component is titrated into another.
For orientation: Kd means the constant that tells how readily two partners part at equilibrium. Take `CO[C@H]1C[C@@H]2CC[C@@H](C)[C@@](O)(O2)C(=O)C(=O)N2CCCC[C@H]2C(=O)O[C@H]([C@H](C)C[C@@H]2CC[C@@H](O)[C@H](OC)C2)CC(=O)[C@H](C)/C=C(\C)[C@@H](O)[C@@H](OC)C(=O)[C@H](C)C[C@H](C)/C=C/C=C/C=C/1C` [Rapamycin]: the Kd was found to be 9.5 nM.

The next assay deals with mTOR (FRB)-N-Luciferase reporter. Kind of assay: split-luciferase complementation (dual element luciferase assay). As to conditions: HEK293T cells, rapamycin treatment; parent: est. 13; read off a plot. Set-up: unit not given here.
As to “FKBP12-C-Luc (from UniProt P62942) E108A”, the response is 5.5. In the case of FKBP12-C-Luc (from UniProt P62942) K45Q, the response was 1.9. On to FKBP12-C-Luc (from UniProt P62942) K45R, for which the response stood at 13. Regarding FKBP12-C-Luc (from UniProt P62942) K48Q, the response turned out to be 5. On the same count and under the same terms, to FKBP12-C-Luc (from UniProt P62942) K48R belongs 16.

For the compound FKBP12-C-Luc (from UniProt P62942) K53Q, the response came to 10. The same measure, in the same setting: the result for FKBP12-C-Luc (from UniProt P62942) K53R reads 16.
